Changes are numbered by the printed parent chain. Names and notes keep the numbering of the source.
B1: Escherichia coli lactate dehydrogenase (LdhA), wild type (enzyme, UniProt P52643 1-329, looked up)
chain: MKLAVYSTKQYDKKYLQQVNESFGFELEFFDFLLTEKTAKTANGCEAVCIFVNDDGSRPVLEELKKHGVKYIALRCAGFNNVDLDAAKELGLKVVRVPAYDPEAVAEHAIGMMMTLNRRIHRAYQRTRDANFSLEGLTGFTMYGKTAGVIGTGKIGVAMLRILKGFGMRLLAFDPYPSAAALELGVEYVDLPTLFSESDVISLHCPLTPENYHLLNEAAFEQMKNGVMIVNTSRGALIDSQAAIEALKNQKIGSLGMDVYENERDLFFEDKSNDVIQDDVFRRLSACHNVLFTGHQAFLTAEALTSISQTTLQNLSNLEKGETCPNELV
notes: D-lactate dehydrogenase LdhA of Escherichia coli; Partly acetylated on K9, K70, K154 and K248 when grown with 2% glucose (mass spectrometry); also called EcLdhA; NAD-dependent lactate dehydrogenase
B2: Escherichia coli LdhA (K248Q) (enzyme, UniProt P52643 1-329, looked up)
chain: B1 chain with K248Q
notes: D-lactate dehydrogenase LdhA of Escherichia coli with K248Q (mimics acetyl-lysine); Same construct as m1 with the point mutation; also called LdhA K248Q mutant
B3: Escherichia coli LdhA (D279N) (enzyme, UniProt P52643 1-329, looked up)
chain: B1 chain with D279N
notes: D-lactate dehydrogenase LdhA of Escherichia coli with D279N; Same construct as m1 with the point mutation; also called LdhA D279N mutant
B4: Escherichia coli LdhA (K248R) (enzyme, UniProt P52643 1-329, looked up)
chain: B1 chain with K248R
notes: D-lactate dehydrogenase LdhA of Escherichia coli with K248R; Same construct as m1 with the point mutation; also called LdhA K248R mutant

Molecular target: the molecule itself
Assay: SEC; gel filtration analysis of purified LdhA and mutants; retention volumes of the highest peaks compared; column and buffer not told

Row | Protein | stoichiometry N
1 | B1 | 4
2 | B2 | 4
3 | B3 | 4
4 | B4 | 4

Source: publication PMC9424733, “Lysine acetylation of Escherichia coli lactate dehydrogenase regulates enzyme activity and lactate synthesis” (Frontiers in Bioengineering and Biotechnology, 2022)
